Measurements taken from paper doi:10.1101/2024.03.25.586624.

Tests used:
[1] = target: synthetic sfGFP peptide, peptide variant 9; test: AlphaScreen or HTRF
[2] = target: synthetic sfGFP peptide, peptide variant 14; test: AlphaScreen or HTRF

## MBP-TbtF RRE domain (domain or fragment)
[1]
  AlphaLISA signal, percent of the wild-type TbtA leader sequence: 25%
[2]
  fold of the AlphaLISA signal of the wild-type TbtA leader sequence: 2 fold
